Assay results: US20230144799A1 (published 2023)
*1 amine or outer side, *2 acyl side, *3 side chain or, on linkers, in order; H or OH if unused. Bridges are numbered along the chain shown (N, C = ends). Primed or numbered codes have the meaning given here. Where no end group is shown, it is not given here. [ ]: non-standard residue; d: D form. Sar10″ = ten sarcosine residues, CN(CC(=O)N(C)CC(=O)N(C)CC(=O)N(C)CC(=O)N(C)CC(=O)[*:2])C(=O)CN(C)C(=O)CN(C)C(=O)CN(C)C(=O)CN(C)C(=O)CN(C)[*:1]; TATA = O=C(CC[*:1])N1CN(C(=O)CC[*:2])CN(C(=O)CC[*:3])C1; Hyp = O=C(O)[C@@H]1C[C@@H](O)CN1; hArg = N=C(N)NCCCC[C@H](N)C(=O)O; βAla = NCCC(=O)O

Target: T1, Rat EphA2, biotinylated (in house) (Rat)
T1 construct: SPR target captured on streptavidin; also called Rat EphA2 (SPR)
Assay: SPR (Biacore 3000), biotinylated rat EphA2 on streptavidin, 1:1 model

T1 sequence (Q03145 other isoform, or with tags, fused parts or gaps): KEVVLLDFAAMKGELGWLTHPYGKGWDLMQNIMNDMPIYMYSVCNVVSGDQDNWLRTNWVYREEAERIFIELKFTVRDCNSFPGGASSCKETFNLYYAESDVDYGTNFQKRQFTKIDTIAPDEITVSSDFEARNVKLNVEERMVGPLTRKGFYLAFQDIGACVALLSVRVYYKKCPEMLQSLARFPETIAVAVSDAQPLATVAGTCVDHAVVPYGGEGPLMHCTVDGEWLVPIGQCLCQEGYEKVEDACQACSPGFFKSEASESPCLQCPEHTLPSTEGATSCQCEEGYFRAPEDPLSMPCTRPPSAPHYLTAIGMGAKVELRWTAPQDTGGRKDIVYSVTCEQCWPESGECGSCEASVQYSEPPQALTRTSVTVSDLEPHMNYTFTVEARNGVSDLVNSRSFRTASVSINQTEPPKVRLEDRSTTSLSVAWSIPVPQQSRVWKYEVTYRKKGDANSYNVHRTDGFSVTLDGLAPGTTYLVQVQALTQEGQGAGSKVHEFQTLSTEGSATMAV

B1: BCY6136 (peptide)
peptide: [βAla][Sar10″]A[hArg]DC[Hyp]LVNPLCLHP[dD]W[hArg]C-NH2
modifications: linker 6-13-20 via TATA (inferred); also: conjugated to ValCit-MMAE linker/toxin, attachment site not given here
notes: also called BT5528
B1 was tested, and the Kd was 2.96 nM and the t1/2 was 12.6 min.

B2: BCY6173 (peptide)
peptide: [βAla][Sar10″]A[hArg]DC[Hyp]LVNPLCLHP[dD]W[hArg]C-NH2
modifications: linker 6-13-20 via TATA (inferred); also: conjugated to DM1-SS(SO3H)- linker/toxin, attachment site not given here
Binder B2 has a Kd of 1.1 nM and a t1/2 of 12 min.
